Assay: soluble on expression in E. coli; label from the status in PepcDB or PDB records

Sequence	soluble on expression in E. coli
MNSPLDVKDLIDLGRDPVVVFNPPSIGTPDRIERYHAALEWLIGRERPFVLVTRADGDEASESHEDRKSRAVWFKNNLMALAQVCRGFVYVEQDEARRAAWQVRAEGMAKTFPVPMIIAGDMEAAITQALDLVKASRDPAPGGSPHA	not soluble
MTSKSVATPALDPAFQQLTAFASVHNFILVKGQADKQDLAGYNIPKLKELIVAYHNLYRSKHGAPPLVADPVMDVAAKRWADEMAKSGWISHEKPRKYGENVAMFCQSGCWPLPQTLAQAMVHLFYIEGIGYDYSSFKPELLKENGHFTQIVWKSSRKIGVGISIGKSSQPPYIPTMFHCVKFDPPGNVLAQQYYLSNVQRPTA	not soluble
MEIAFLLNGETRRVRIEDPTQSLLELLRAEGLTGTKEGCNEGDCGACTVMIRDAAGSRAVNACLMMLPQIAGKALRTIEGIAAPDGRLHPVQQAMIDHHGSQCGFCTPGFIVSMAAAHDRDRKDYDDLLAGNLCRCTGYAPILRAAEAAAGEPPADWLQADAAFTLAQLSSGVRGQTAPAFLPETSDALADWYLAHPEATLIAGGTDVSLWVTKALRDLPEVAFLSHCKDLAQIRETPDGYGIGAGVTIAALRAFAEGPHPALAGLLRRFASEQVRQVATIGGNIANGSPIGDGPPALIAMGASLTLRRGQERRRMPLEDFFLEYRKQDRRPGEFVESVTLPKSAPGLRCYKLSKRFDQDISAVCGCLNLTLKGSKIETARIAFGGMAGVPKRAAAFEAALIGQDFREDTIAAALPLLAQDFTPLSDMRASAAYRMNAAQAMALRYVRELSGEAVAVLEVMP	soluble
MPMNRLISHIERSISIHKCVVVPSLGGFVAELLPACYDRDDNLIYPPKEELRFNAALSLRDGILEDSYARAYGISHRRARVMLDDDVRTLRAELVRAGRVSLEKMGELTLNPEGQISYSHRSEAEEGSGFSYGLAPCSLPRLAESFDEARPFAEREKEALSVGRSDYFYLKIHKRTGMMAAAAVMSAVLLVVPWGQISSSDKFAASFVPTELTAKSVWKDTEARPVQVVTAKPASVATTADSQPIEATASKPAESPNQLSTDVAEGGVPVMHEPVGSKCYYVVVGTFDTKKKAQEFYRMSIDKAIMPNAVVLLSSNKARIYSDRFATADEAQTYIRSMKDKHRLFADAWVYAGR	not soluble
VSAPDSPALAGMSIGAVLDLLRPDFPDVTISKIRFLEAEGLVTPRRASSGYRRFTAYDCARLRFILTAQRDHYLPLKVIRAQLDAQPDGELPPFGSPYVLPRLVPVAGDSAGGVGSDTASVSLTGIRLSREDLLERSEVADELLTALLKAGVITTGPGGFFDEHAVVILQCARALAEYGVEPRHLRAFRSAADRQSDLIAQIAGPLVKAGKAGARDRADDLAREVAALAITLHTSLIKSAVRDVLHR	soluble
MFLRLFKYLWPERYLPEIPAQDPFDENPPPCGPGRVGVLLVNLGTPDEPTRGAIRRYLGEFLSDPRVIEIPRYLWMPILHGLVLAMRPKKLAPRYAGIWMEEGSPLLVYSQRQAAGVRQGLAARGVHAEVELAMRYGKPSIPAAITALRERGCDHILAVPLYPQYAASTTATVVDAVTRHAGRLRDQPALRFVKRFHNDPAYVEAQAGRIAEFWQAHGRPQKLVMSFHGLPRYSIELGDPYYRDCLDTARLLRERLGLREDEVEVTFQSRFGSARWLEPYTEPTLAELARQGVTEVDVVCPGFVADCLETLEEISQECRDAFVAAGGRQFRYIPALNDCPPWIEGLTDLVERQLRGWPTGNP	not soluble
LTEHLIDSIRTNRTENKIHLKPEPFNIGPYTKLSINKRDNYGTIKIKWFDRVPFTEYKSFLDSSIHNLNTRQITNLIIDLRWNIGGPREYPIYLLSKILNQPFRYCDSLITTKFTFEEKIAFDSTKVFVPMDNGFYKVVKNARGLGQQNPSNVTFTGNIYLLVDGQSNSSSAQVASLIYQNRRGTIIGEEPGGLFEGGTGEHHYYLTLTNSRIKVQIPRYRIVLHVDRSKFHGHGVKPDYEVKPDITDMIQGKDPVMEFTIGLIKK	not soluble
MRIEQELKLGFKDVLFRPKRSTLKSRSQVNLTREFTFKHSGRQWSGVPVIAANMDSVGSFAMAKALAEHGVMTAVHKHYTVADWAEFVKSADKATLNNVMVSTGTSEADFQKTKDVMALSDELIFICIDIANGYSEHLVEYVQRVRAAFPDKVISAGNVVTGDMVEELILAGADIVKVGIGPGSVCTTRVKTGVGYPQLSAIIECADAAHGLGGRIIGDGGCTCPGDVAKAFGGGADFVMLGGMLAGHEEAGGELIVKDGETFMKFYGMSSKSAMDKHSGGVAGYRAAEGKTVLLPYRGSVHGTIQDILGGVRSTCTYVGAAELRELTKRTTFIRVQEQENNVYGRE	soluble
MGSDKIHHHHHHMTERIDFTKSEQYTLSIRLSADGFSFSIYNPLTDNDFCFVPHPVNTGYSMTANLKDMLTKTEALKYPYKRVNILYDSPRFTPVPLELFEDEQMDTIFYHNFPKAKGNNEIVLCNVLGRSNVVILFAMDKHTHLLLTEHFPTARFFSTASPLTEYFARKSRLGNSRKLYTYIREQQMEVFCFDKGNLLLINSFPCKQTTDRVYYLLYVWQQLNYNQERDELHLTGILKDKEELLKELRNYLRQVFVISPKAEFNRSEISKIEEIPFDMQTLLLCE	not soluble
MATTATRHQDSKLSEKAESILAGFKLNWMNLRDAETGKVLWQSTEDMADPKREHKAHVPKNLLKCRTVSREINFTSSVKIEKFRLEQRVYLKGTIIEEWYFDFGFVIPDSTNTWQNMIEAAPESQMFPPSVLSGNVVVETLFYDGDLLVSTSRVRLYYD	not soluble
IPKNTGGVLNSSVLDDAFSFITSYFDIEYGGLGFGAKFPHPFVDLLFLNYSATRGDDLGKKLGLFTLRKMYYGGIFDQVGGGFHRYTVDREWKLPHFEKLLIDNAELIYDYFTYYIATNDIEILDALRNSVDFVLRELYIDGKGFANSLDADSEGMEGKYYTWTEDELKDSLGNDY	not soluble
MSLTSYHSHPPKAYRRFESVCTQAPNAIAVVDEGKLVTYQQLQTQVLERSEALIRQGLADHPYMPLMANRCLEYLITMLACCKLGITYVSIEPGTPSKRLIAVLEQLGCNHLLLLGQPTDLRPDPTLTCFRLDDCGTLCYDGPALRPPIRRRLDDASVITVMFTSGTTGLPKGVRISHDGLLNLVDNVQQQVQGKPRSYVHHSSIGFDAALFEVWVPLLTGACVTLQPGAFNIDALDHCVRAASCDVLLLTTSLFHLVAQHRLSMLDAVRVLYVGGEVLKPVHARALLLANPRITLVNGYGPTENTVFSTWYSLNKPEDAERDVMPIGQFLHQVYGKIVDAKLQEVEVGTPGELLLTGANLALGYLDDALTQTRFLQLPEGTYYRTGDYVIEDEHGMLFYQGRIDEQVKIKGFRVEIAEVEHALTQLPGVAQAVVQAHVMNDLEKSLHAFIVLRHGSPTIEESKLMSLLGDRLPHYMVPRRIHYLAELPLTANGKVDKRSLQPPEKAAAAPPQAGSAVLDIWSGILGTRNLQLEHSIYGYGASSLSVVMAHSRINEILGRTTPFDEVARLSTFQEWVQYYATHEDPVTSLRSQHGNEGHHHHHH	not soluble
MGSDKIHHHHHHMRVCAEHHVINTATGPMGTRVYRPAGPGSYPAILFYSEIFQETAPISRMATVLAGHGFVVLVPEIFHELNPAGTVLGYDDMGKDKGNSDKATKPLESHDSDTAAMVDFVRRQPWCQGKIGAMGVCIGGHLAYRAAVNPDVAAAFCLYATDIHSGTIPSQPGNDSLSRTRDIRGELYMVFGKQDPHVPGEGRRLIQHNLEQHGVNHSWLEVNAEHAFMRDGDARHDPALALVMYQSAIALFQRTL	not soluble
FNRRFILPELREAVRSVSADIVFLQEVHGEHHSHARRVKDWPTISQYEFLADSMWSDFAYGRNAVYPDGDHGNALLSKYPIIQHENLDVSIDGTEQRGLLHCILQVPDHGQVHAVCVHLGLFESHRRQQLKLLAQLMDRLPEGAPVIVAGDFNDWRQRADALLQGTGLHEVFVQRFGAPAKSFPARWPLLRLDRIYVRNATSHRPKVLSSRPWSHLSDHAPLAVEVTL	not soluble
KQKRARLIYNPTSGQEIMKKNVAEVLDILESFGYETSAFQTTPRADSAKNEAARASQAGFDLVIAAGGDGTINEVVSGIAPLKRRPKVAIIPTGTTNDFARALKIPRGNPVEATKLIGKNQTIHMDIGRAYND	not soluble
